Assay results as given in US20170121416A1 (AbbVie / Abbott, published 2017).

What was measured:
[1] = molecular target: T1, Nectin-4 on cells (MCF-7, SKBR3) (UniProt Q96NY8 32-510, limits assumed); assay: cell-based or functional assay
T1 sequence (looked up): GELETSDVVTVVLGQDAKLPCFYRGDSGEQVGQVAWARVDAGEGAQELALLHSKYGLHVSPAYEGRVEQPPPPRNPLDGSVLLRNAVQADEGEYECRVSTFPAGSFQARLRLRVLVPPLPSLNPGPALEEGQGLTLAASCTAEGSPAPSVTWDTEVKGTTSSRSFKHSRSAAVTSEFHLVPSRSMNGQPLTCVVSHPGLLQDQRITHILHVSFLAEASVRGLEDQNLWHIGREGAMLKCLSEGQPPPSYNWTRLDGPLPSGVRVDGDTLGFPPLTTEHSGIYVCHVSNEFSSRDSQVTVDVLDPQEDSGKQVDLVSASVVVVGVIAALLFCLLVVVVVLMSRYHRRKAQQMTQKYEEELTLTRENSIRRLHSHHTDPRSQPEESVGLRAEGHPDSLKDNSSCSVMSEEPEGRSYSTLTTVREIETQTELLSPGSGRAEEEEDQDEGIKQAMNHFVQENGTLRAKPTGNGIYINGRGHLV

[2] = molecular target: T2, human CD324 on cells (MCF7, BR22, NTX tumor cells, 293-hCD324) (human, UniProt P12830 155-882); assay: cell-based or functional assay
T2 sequence: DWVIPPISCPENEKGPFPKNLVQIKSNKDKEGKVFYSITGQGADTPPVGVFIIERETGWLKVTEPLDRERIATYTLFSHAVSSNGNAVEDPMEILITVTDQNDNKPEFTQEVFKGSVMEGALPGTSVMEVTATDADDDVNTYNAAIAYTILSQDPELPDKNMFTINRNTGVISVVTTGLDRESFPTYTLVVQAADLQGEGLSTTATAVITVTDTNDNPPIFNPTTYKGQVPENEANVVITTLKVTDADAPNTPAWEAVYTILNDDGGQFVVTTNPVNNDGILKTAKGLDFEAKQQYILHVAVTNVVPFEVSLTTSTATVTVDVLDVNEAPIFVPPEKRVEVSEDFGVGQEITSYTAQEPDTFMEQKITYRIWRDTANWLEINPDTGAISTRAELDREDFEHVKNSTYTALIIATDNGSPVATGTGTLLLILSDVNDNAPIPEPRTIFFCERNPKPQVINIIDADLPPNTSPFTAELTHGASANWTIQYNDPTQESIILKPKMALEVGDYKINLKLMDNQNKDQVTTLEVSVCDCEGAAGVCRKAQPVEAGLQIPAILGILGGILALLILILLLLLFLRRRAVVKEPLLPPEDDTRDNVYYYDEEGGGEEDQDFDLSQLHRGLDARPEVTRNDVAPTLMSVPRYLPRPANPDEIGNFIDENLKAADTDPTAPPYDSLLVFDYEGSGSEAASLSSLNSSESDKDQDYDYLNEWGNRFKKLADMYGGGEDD

[3] = molecular target: T2, human CD324 on cells (MCF7, BR22, NTX …); assay: cell-based or functional assay; remark: listed apart in the source
[4] = molecular target: T3, Nectin-4 protein (R&D Systems) (UniProt Q96NY8 32-349); assay: bridging ELISA: Nectin-4 coated, detection with biotinylated CD324 W2A and streptavidin-HRP
T3 construct: bought; coated on the plate of the bridging ELISA
T3 sequence (looked up): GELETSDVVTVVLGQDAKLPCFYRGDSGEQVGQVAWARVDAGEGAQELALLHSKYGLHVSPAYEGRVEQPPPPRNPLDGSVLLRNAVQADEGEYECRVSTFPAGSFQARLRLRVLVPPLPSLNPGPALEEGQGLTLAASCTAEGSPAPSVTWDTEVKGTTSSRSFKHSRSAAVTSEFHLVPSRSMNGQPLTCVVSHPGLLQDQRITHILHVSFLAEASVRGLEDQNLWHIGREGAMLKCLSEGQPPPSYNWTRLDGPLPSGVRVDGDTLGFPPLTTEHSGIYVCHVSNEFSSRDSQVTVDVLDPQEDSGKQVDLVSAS

[5] = molecular target: T2, human CD324 on cells (MCF7, BR22, NTX …); assay: cell-based or functional assay; remark: listed apart in the source
[6] = molecular target: T4, human CD324-His recombinant protein (Sino Biological, Inc.) (human, UniProt P12830 155-709); assay: SPR (Biacore), similar experiments as for murine SC10.17; humanized antibody
T4 construct: bought soluble protein; The antigen of the Biacore experiment is only called human CD324 antigen; also called hCD324-His; human CD324 antigen; not shown: His tag
T4 sequence: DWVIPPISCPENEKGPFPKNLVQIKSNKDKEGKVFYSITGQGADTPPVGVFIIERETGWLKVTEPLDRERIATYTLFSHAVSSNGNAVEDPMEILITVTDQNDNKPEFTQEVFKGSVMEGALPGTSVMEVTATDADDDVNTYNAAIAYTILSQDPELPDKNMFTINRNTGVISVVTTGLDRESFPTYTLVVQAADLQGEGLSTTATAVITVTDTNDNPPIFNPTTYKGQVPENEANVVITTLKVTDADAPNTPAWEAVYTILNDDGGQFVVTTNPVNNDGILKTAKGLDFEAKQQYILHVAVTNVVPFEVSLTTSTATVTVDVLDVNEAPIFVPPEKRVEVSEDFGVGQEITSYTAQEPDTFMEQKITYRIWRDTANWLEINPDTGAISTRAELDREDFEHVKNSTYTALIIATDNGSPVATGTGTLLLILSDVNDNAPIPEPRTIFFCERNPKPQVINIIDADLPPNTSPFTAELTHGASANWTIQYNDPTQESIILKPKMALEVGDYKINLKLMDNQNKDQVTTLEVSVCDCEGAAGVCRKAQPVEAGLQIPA

B1: hSC10.17 (antibody, V domains shown)
VH: EVQLVESGGGLVQPGGSLRLSCAASGFTFSSYGMHWVRQAPGKGLEWVAYITTRSSTIYYADSVKGRFTISRDNAKNSLYLQMNSLRAEDTAVYYCTREPLTGYYAMDYWGQGTSVTVSS
VL: DVVMTQSPLSLPVTLGQPASISCRSSQSIVHSDGNTYLEWYQQRPGQSPRRLIYKVSNRFSGVPDRFSGSGSGTDFTLKISRVEAEDVGVYYCFQGSHAPWTFGGGTKVEIK
notes: humanized (CDR-grafted) SC10.17; also called humanized SC10.17 mAb; hSC10.17 IgG
[1]
  IC50 on SKBR3 (pM), in vitro killing with anti-human IgG Fab-saporin: > 1000 pM
[2]
  IC50 on 293-hCD324 (pM), in vitro killing with anti-human IgG Fab-saporin: 0.27 pM
  IC50 on MCF-7 (pM), in vitro killing with anti-human IgG Fab-saporin: 3.1 pM
[3]
  EC50 (MCF7, Fab-saporin killing): 4.44 pM
[4]
  binding result: no binding
[5]
  EC50 of killing of MCF7 cells, anti-human Fab-saporin assay: 4.4 pM
[6]
  Kd: 3800 pM
